# Results published in the supplement of paper PMC10724198.
# ± gives the standard deviation of the averaged measurements.
# Tested on: Saccharomyces cerevisiae
# Experiment: protein stability index of tFT-peptide fusion (C-terminal peptide) (PSI (0-1 scale)); higher = more stable (slower turnover)
# Conditions: genetic background: wild type; temperature: 30 C
# 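Also: PSI is a weighted mean of sequencing reads over stability bins, variants kept only with over 10 reads, mCherry proximal and sfGFP distal, peptide attached via GGGS linker.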
row,Sequence,protein stability index
1,PPLIPPSCSPLH,0.6864 ± 0.0027
2,PPLLLSPCPSLP,0.7229 ± 0.0034
3,PPLLPLCVPPPP,0.71 ± 0.033
4,PPLLPPGPPSPP,0.588 ± 0.01
5,PPLLPPPPRRPP,0.643 ± 0.0012
6,PPLLTPSVPFSS,0.715 ± 0.033
7,PPLPFPPLPPSP,0.74 ± 0.063
8,PPLPFPPPPLPP,0.613 ± 0.029
9,PPLPLLPSPSPL,0.753 ± 0.086
10,PPLPLLSTCAGA,0.69 ± 0.15
11,PPLPLSTLFLSA,0.712 ± 0.041
12,PPLPPAPPPSPP,0.652 ± 0.029
13,PPLPPPCPLPRN,0.7711 ± 0.0013
14,PPLPPPPPDFSP,0.761 ± 0.18
15,PPLPPPPPRPPP,0.611 ± 0.086
16,PPLPPPRPLSPC,0.713 ± 0.094
17,PPLPPPRRSSPP,0.705 ± 0.02
18,PPLPPRSISPVL,0.737 ± 0.11
19,PPLPPRTPPPLS,0.704 ± 0.077
20,PPLPSPASPRTP,0.721 ± 0.031
21,PPLPSPPAHSRS,0.678 ± 0.02
22,PPLRLRLPPAVL,0.629 ± 0.095
23,PPLSPPALPPPL,0.672 ± 0.0076

row,Sequence,protein stability index
1,PPLSSFSHHSFG,0.715 ± 0.069
2,PPLTPLPLGSPP,0.717 ± 0.027
3,PPLTRPPTPVPP,0.6626 ± 0.0048
4,PPLVHHSTLPPA,0.679 ± 0.022
5,PPLVPRTSPSPS,0.666 ± 0.012
6,PPLYPGSKVQLL,0.672 ± 0.011
7,PPNHRAGSWLAR,0.655 ± 0.012
8,PPNPFRHTPSIP,0.736 ± 0.027
9,PPNPNEPTQTPA,0.711 ± 0.013
10,PPNPPPPPLPPP,0.666 ± 0.068
11,PPPAASCLLLPL,0.699 ± 0.028
12,PPPALLAPPLPF,0.756 ± 0.096
13,PPPAPAPPLTSS,0.71 ± 0.023
14,PPPAPLALTPSL,0.71394 ± 0.00049
15,PPPAPPPCAPTP,0.713 ± 0.043
16,PPPAPSPPPSPP,0.611 ± 0.0099
17,PPPAPSSPVLVP,0.686 ± 0.037
18,PPPARSPLPLPP,0.742 ± 0.018
19,PPPFPLLSPPPL,0.808 ± 0.0097
20,PPPHPHLPPHSD,0.69 ± 0.06
21,PPPHPLLRPSPS,0.737 ± 0.011
22,PPPHPPHSALPS,0.762 ± 0.021
23,PPPHPPLPPPTP,0.678 ± 0.039

row,Sequence,protein stability index
1,PPPHPPPPAPPY,0.735 ± 0.019
2,PPPHPTLSPLVP,0.676 ± 0.013
3,PPPHTHPPTPLL,0.689 ± 0.011
4,PPPLASLPSFLR,0.739 ± 0.011
5,PPPLLPPRAPSP,0.6294 ± 0.0031
6,PPPLLTSSPPPR,0.712 ± 0.025
7,PPPLPASPPPPY,0.683 ± 0.035
8,PPPLPLSLCEPL,0.7 ± 0.019
9,PPPLPPALSPSH,0.679 ± 0.07
10,PPPLPPPHPSPI,0.669 ± 0.019
11,PPPLPPPSLLPT,0.762 ± 0.043
12,PPPLPSIPPFVL,0.708 ± 0.094
13,PPPLPSPAPPPP,0.709 ± 0.053
14,PPPLSPPRPPRH,0.701 ± 0.022
15,PPPNSTPNPLST,0.7394 ± 0.0058
16,PPPPAHSYHPPS,0.714 ± 0.16
17,PPPPGPSSPHPP,0.707 ± 0.041
18,PPPPHCPQPPPP,0.72 ± 0.018
19,PPPPHDLLTPPS,0.736 ± 0.0079
20,PPPPLAPSPPPS,0.6542 ± 0.0025
21,PPPPLPLPPSLP,0.5979 ± 0.0054
22,PPPPLPPALFPP,0.589 ± 0.013
23,PPPPLPPFPPHP,0.659 ± 0.017

row,Sequence,protein stability index
1,PPPPLPPSSPPL,0.751 ± 0.027
2,PPPPPACRLCFF,0.634 ± 0.1
3,PPPPPLPQAPPT,0.687 ± 0.014
4,PPPPPPLPPLSP,0.717 ± 0.035
5,PPPPPPLPPSAA,0.711 ± 0.0091
6,PPPPPPNLASHP,0.707 ± 0.0031
7,PPPPPPPCFFPP,0.715 ± 0.048
8,PPPPPPPHPTPT,0.676 ± 0.039
9,PPPPPPPLPPPP,0.667 ± 0.015
10,PPPPPPPPAPPY,0.725 ± 0.017
11,PPPPPPPPAVVA,0.569 ± 0.028
12,PPPPPPPPPHSP,0.769 ± 0.01
13,PPPPPPPPPLAF,0.653 ± 0.12
14,PPPPPPPPRPPS,0.651 ± 0.069
15,PPPPPPPPTPAS,0.654 ± 0.023
16,PPPPPPPPVPLL,0.708 ± 0.017
17,PPPPPPPVLSSI,0.647 ± 0.076
18,PPPPPPSAPPPS,0.669 ± 0.026
19,PPPPPPSISPSP,0.5389 ± 0.0053
20,PPPPPPSPHPPS,0.726 ± 0.024
21,PPPPPQLPQCPP,0.711 ± 0.042
22,PPPPPRPPAGFL,0.924 ± 0.095
23,PPPPPRPPPARL,0.672 ± 0.06

row,Sequence,protein stability index
1,PPPPPRPSPPHP,0.833 ± 0.022
2,PPPPPSSPPLPP,0.64 ± 0.083
3,PPPPPSVTRTQP,0.649 ± 0.043
4,PPPPPTSPPPHP,0.706 ± 0.032
5,PPPPRLSLHSPP,0.713 ± 0.0085
6,PPPPRPACLPSN,0.727 ± 0.018
7,PPPPRPSSDRFR,0.684 ± 0.016
8,PPPPSLPHTIGP,0.643 ± 0.042
9,PPPPSLPPSFPS,0.67 ± 0.072
10,PPPPSPPPIPSP,0.706 ± 0.04
11,PPPPSRPPPAPR,0.701 ± 0.053
12,PPPPSRPPPPRL,0.789 ± 0.021
13,PPPPTLSPPRSL,0.718 ± 0.034
14,PPPPTPRPPSSL,0.728 ± 0.061
15,PPPPVPPPALPL,0.644 ± 0.045
16,PPPPVPPPPSSL,0.749 ± 0.037
17,PPPQFPRPRPTS,0.724 ± 0.014
18,PPPRFRPLPLRA,0.5935 ± 0.0019
19,PPPRPPPRPLPP,0.669 ± 0.024
20,PPPRPPSPPPPP,0.672 ± 0.051
21,PPPRPPSPPPPS,0.699 ± 0.035
22,PPPRPRPSSRSI,0.71 ± 0.016
23,PPPRTTPYPSSL,0.714 ± 0.055

row,Sequence,protein stability index
1,PPPRVHPCHPPC,0.678 ± 0.031
2,PPPSPGSSAPPP,0.676 ± 0.037
3,PPPSPLANPPSP,0.728 ± 0.092
4,PPPSPPPQPHRP,0.665 ± 0.018
5,PPPSQPTSPPPP,0.732 ± 0.067
6,PPPSRLSPVICP,0.612 ± 0.01
7,PPPSRSLPPRPQ,0.727 ± 0.027
8,PPPSRSLPPRRL,0.661 ± 0.03
9,PPPSSIGRTPIS,0.693 ± 0.033
10,PPPSSPPPPAPL,0.694 ± 0.035
11,PPPTHQLAVLSP,0.6413 ± 0.0062
12,PPPTPPPAPSHR,0.677 ± 0.1
13,PPPTSPPHPPSP,0.701 ± 0.083
14,PPPVFPPLPVLS,0.598 ± 0.007
15,PPQFIYYPLPLF,0.616 ± 0.063
16,PPQGMTGGRGDR,0.697 ± 0.077
17,PPQTHPLPCPSP,0.745 ± 0.018
18,PPRAPFVSPFGY,0.723 ± 0.012
19,PPRAPSPSPLPP,0.893 ± 0.1
20,PPRCPLPPLSPP,0.701 ± 0.11
21,PPRFFARPPFRT,0.6309 ± 0.0059
22,PPRGAPWTRPPQ,0.691 ± 0.015
23,PPRGFDPSFQTV,0.7 ± 0.18

row,Sequence,protein stability index
1,PPRHPPPSPLVA,0.668 ± 0.011
2,PPRHTPFSLPPF,0.651 ± 0.074
3,PPRLNKAPCLDP,0.705 ± 0.036
4,PPRPFTLLPPPP,0.6424 ± 0.0062
5,PPRPPAPHLSGI,0.681 ± 0.039
6,PPRPPPAPPPLP,0.642 ± 0.0021
7,PPRPPPFPPLLP,0.679 ± 0.058
8,PPRPPPHPPLPP,0.678 ± 0.0057
9,PPRPPPLPPSRP,0.627 ± 0.032
10,PPRPPPSPPSFP,0.688 ± 0.014
11,PPRPPRFFLLPP,0.6586 ± 0.0061
12,PPRPQPPGSSFS,0.741 ± 0.012
13,PPRPRPRPLSPP,0.65 ± 0.039
14,PPRPSLIPPLPS,0.61 ± 0.016
15,PPRPSTPPRHSL,0.695 ± 0.058
16,PPRQPACAFLPS,0.653 ± 0.09
17,PPRSPPPLSPTP,0.583 ± 0.038
18,PPRSPPPPPTLP,0.6578 ± 0.001
19,PPSAALPTSPTG,0.6911 ± 0.0015
20,PPSFCFFLLPFL,0.6558 ± 0.0054
21,PPSHSPRPLSFL,0.653 ± 0.08
22,PPSHYPFTPADP,0.728 ± 0.046
